Paper PMC4930479 (Angiogenesis, 2016)

Target: the molecule itself
Test: SEC-MALS; inhibitor and ligand mixed at molar ratios 5:1 to 1:5 (20 µM and 100 µM), 12 h at ambient temperature; free proteins injected separately; Superose 12 10/300 GL, 10 mM phosphate, 500 mM NaCl, pH 7.0, 0.3 mL/min

B1: PlGF-2 (ligand, UniProt P49763-3 19-170, looked up)
chain: LPAVPPQQWALSAGNGSSEVEVVPFQEVWGRSYCRALERLVDVVSEYPSEVEHMFSPSCVSLLRCTGCCGDENLHCVPVETANVTMQLLKIRSGDRPSYVELTFSQHVRCECRPLREKMKPERRRPKGRGKRRREKQRPTDCHLCGDAVPRR
notes: PlGF-2, isoform of placental growth factor; Dimer (~42 kDa by SEC-MALLS); also called placental growth factor
stoichiometry N: 2
